# Reference: patent US7629437 (University of California, dated 2009)
# *: point of attachment. CH2Cl = ClC*
# B1: Ac-PRNK-cmk (peptide)
# peptide: Ac-PRNK-CH2Cl
# SMILES: CC(=O)N1CCC[C@H]1C(=O)N[C@@H](CCCNC(=N)N)C(=O)N[C@@H](CC(N)=O)C(=O)N[C@@H](CCCCN)C(=O)CCl
# Assays:
# Test in all cases: cell-based or functional assay
# [1] = target: Recombinant human βII tryptase (human, singly N-glycosylated (non- and single-glycosylation forms observed))
# Factor Xa = target: Factor Xa
# [2] = target: urokinase plasminogen activator (UniProt P00749 21-431, limits assumed)
# [3] = target: tissue-type plasminogen activator (UniProt P00750 36-562, limits assumed)
# [4] = target: Recombinant human βI tryptase (human, UniProt Q15661 31-275, N-glycosylated (non-, single-, double- and hyper-glycosylation forms observed))
# Human thrombin = Human thrombin (human, UniProt P00734 328-622)
# Human plasmin = Human plasmin (human, UniProt P00747 97-810, limits assumed)
# Human plasmin, sequence (P00747 97-810 limits assumed): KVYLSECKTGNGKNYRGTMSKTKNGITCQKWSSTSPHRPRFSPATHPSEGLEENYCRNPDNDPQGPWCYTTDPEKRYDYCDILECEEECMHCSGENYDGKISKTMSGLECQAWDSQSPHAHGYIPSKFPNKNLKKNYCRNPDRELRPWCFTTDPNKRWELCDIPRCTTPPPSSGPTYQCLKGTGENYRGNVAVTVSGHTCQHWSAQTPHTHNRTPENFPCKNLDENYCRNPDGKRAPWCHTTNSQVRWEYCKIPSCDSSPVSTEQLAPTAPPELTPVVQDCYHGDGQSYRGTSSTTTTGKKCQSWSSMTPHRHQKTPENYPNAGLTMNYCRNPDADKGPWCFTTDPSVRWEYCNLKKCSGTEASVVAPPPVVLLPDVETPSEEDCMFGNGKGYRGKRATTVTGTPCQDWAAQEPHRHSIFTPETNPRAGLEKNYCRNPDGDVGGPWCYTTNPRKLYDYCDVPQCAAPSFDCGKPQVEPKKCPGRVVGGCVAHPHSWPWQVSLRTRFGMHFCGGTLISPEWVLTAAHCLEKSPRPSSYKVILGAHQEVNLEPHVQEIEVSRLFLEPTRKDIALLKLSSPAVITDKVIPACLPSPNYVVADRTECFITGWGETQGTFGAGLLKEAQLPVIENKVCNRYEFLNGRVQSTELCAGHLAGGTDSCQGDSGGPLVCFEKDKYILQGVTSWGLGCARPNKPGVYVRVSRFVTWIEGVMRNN
# Recombinant human βI tryptase, sequence (Q15661 31-275): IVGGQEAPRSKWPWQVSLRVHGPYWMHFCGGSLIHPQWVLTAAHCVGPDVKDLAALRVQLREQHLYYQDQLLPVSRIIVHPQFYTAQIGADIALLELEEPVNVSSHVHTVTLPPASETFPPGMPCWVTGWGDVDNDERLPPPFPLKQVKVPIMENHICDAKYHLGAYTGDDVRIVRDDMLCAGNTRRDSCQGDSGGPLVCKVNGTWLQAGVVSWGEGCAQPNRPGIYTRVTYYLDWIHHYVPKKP
# Recombinant human βII tryptase (human, singly N-glycosylated (non- and single-glycosylation forms observed)), sequence (chain, as listed by the source): as the sequence (Q15661 31-275) above, with N102K counted along it
# tissue-type plasminogen activator, sequence (P00750 36-562 limits assumed): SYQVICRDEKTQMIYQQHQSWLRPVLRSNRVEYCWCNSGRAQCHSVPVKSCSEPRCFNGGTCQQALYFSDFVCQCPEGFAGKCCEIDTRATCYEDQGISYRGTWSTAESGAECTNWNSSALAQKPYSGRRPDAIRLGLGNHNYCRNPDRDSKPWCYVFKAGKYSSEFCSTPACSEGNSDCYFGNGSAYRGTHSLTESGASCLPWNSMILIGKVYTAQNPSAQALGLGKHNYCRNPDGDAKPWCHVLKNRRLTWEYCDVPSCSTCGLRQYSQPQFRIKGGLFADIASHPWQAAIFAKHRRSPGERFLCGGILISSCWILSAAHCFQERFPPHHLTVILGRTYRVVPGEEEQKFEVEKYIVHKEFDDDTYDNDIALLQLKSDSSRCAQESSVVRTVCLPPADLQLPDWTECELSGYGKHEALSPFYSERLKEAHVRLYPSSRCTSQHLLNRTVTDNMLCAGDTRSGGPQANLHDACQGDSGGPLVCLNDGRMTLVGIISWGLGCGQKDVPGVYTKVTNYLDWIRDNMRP
binder,measurement,setting,value
B1,"Percent Inhibition, 10 µM Ac-PRNK-cmk",[1],95%
same,"Percent Inhibition, 100 µM Ac-PRNK-cmk",[1],100%
same,"Percent Inhibition, 10 µM Ac-PRNK-cmk",Factor Xa,0%
same,"Percent Inhibition, 100 µM Ac-PRNK-cmk",Factor Xa,0%
same,"Percent Inhibition, 10 µM Ac-PRNK-cmk",[2],0%
same,"Percent Inhibition, 100 µM Ac-PRNK-cmk",[2],34%
same,"Percent Inhibition, 10 µM Ac-PRNK-cmk",[3],0%
same,"Percent Inhibition, 100 µM Ac-PRNK-cmk",[3],0%
same,"Percent Inhibition, 10 µM Ac-PRNK-cmk",[4],95%
same,"Percent Inhibition, 100 µM Ac-PRNK-cmk",[4],100%
same,"Percent Inhibition, 10 µM Ac-PRNK-cmk",Human thrombin,0%
same,"Percent Inhibition, 100 µM Ac-PRNK-cmk",Human thrombin,0%
same,"Percent Inhibition, 10 µM Ac-PRNK-cmk",Human plasmin,0%
same,"Percent Inhibition, 100 µM Ac-PRNK-cmk",Human plasmin,63%
